Laboratory results published in US12427210B2, “Compounds comprising a fibroblast activation protein ligand and use thereof” (priority 2019, dated 2025).
One block for each binder: values may come before it.

Legend:
Conditions in all cases: remark: other sources report otherwise
[1] = target: T1, Potassium Channel hERG (human) (human), Q12809; assay: displacement of [3H] Dofetilide, compound at 10 µM
T1 chain: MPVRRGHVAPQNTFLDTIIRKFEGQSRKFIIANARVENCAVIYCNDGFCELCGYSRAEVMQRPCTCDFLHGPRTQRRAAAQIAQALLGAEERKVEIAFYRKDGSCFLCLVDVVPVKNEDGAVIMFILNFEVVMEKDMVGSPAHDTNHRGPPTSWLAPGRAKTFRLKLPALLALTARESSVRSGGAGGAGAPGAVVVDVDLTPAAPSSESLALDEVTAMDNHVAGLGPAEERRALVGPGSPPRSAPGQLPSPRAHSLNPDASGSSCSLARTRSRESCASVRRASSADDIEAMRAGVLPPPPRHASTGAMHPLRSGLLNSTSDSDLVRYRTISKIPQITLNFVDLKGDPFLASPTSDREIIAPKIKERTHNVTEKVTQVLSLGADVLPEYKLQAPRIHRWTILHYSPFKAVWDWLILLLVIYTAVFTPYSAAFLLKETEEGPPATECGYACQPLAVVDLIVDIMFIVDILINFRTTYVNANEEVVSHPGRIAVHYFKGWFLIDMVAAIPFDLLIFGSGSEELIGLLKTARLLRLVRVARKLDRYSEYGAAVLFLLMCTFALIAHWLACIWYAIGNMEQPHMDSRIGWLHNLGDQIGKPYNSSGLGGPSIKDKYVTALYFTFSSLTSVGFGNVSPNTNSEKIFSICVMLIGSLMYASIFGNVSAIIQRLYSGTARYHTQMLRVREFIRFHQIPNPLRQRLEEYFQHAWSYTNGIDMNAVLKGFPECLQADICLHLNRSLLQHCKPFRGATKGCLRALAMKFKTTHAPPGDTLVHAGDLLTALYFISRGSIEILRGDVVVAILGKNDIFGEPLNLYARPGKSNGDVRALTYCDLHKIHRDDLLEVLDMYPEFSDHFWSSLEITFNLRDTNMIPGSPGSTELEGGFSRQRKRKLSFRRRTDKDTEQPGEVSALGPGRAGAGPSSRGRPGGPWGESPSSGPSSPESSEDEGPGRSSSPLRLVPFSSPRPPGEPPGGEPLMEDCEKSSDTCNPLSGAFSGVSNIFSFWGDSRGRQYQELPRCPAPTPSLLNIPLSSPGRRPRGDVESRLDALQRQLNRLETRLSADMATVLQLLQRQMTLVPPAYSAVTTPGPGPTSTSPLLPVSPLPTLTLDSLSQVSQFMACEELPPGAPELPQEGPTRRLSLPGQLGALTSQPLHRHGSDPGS

[2] = target: T2, 5-HT1A (h) (human), P08908; assay: radioligand displacement, compound at 10 µM
T2 chain: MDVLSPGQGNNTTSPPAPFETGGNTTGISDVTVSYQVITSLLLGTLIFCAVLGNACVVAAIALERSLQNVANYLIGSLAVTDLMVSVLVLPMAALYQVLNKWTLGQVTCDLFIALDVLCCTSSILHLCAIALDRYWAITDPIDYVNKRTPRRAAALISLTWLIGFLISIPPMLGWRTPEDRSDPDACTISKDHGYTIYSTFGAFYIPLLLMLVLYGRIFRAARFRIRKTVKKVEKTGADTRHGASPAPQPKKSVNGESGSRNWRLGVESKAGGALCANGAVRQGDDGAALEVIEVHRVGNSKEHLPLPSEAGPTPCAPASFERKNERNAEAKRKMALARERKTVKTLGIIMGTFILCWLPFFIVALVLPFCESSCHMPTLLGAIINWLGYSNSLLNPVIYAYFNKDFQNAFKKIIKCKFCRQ

[3] = target: T3, delta (DOP) (h) (human), P41143; assay: radioligand displacement, compound at 10 µM
T3 chain: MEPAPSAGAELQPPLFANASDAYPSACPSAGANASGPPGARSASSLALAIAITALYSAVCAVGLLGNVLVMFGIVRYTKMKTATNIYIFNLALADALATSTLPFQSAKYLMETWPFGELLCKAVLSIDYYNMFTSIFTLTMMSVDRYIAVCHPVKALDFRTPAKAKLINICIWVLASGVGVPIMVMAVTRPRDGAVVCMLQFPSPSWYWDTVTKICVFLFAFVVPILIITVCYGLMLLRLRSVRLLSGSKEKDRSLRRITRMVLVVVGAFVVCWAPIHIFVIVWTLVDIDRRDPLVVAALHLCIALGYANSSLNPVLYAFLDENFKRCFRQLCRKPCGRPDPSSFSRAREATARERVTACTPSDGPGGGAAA

[4] = target: T4, GR (h) (human), P04150; assay: radioligand displacement, compound at 10 µM
T4 chain: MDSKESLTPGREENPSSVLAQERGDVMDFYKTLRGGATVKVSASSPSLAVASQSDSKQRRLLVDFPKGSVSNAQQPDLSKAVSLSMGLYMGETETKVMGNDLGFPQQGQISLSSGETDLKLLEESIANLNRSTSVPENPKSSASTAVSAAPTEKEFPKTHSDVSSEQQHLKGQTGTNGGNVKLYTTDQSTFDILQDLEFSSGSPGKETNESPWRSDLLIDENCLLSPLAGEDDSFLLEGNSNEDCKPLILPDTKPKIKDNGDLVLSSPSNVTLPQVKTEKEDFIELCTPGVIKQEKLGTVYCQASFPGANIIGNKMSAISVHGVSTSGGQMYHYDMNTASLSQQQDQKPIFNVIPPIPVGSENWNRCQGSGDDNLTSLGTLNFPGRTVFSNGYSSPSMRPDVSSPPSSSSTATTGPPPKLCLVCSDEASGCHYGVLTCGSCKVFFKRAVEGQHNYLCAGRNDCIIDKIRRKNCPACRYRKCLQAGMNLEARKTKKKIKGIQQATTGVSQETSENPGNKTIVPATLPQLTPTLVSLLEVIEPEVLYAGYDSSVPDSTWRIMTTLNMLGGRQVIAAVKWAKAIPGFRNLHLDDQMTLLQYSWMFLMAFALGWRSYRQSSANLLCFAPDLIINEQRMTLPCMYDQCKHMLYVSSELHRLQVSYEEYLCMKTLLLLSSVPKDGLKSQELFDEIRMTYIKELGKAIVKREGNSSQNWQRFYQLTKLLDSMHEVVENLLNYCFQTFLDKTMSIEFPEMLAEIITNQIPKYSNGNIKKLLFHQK

[5] = target: H1 (h) (human), P35367; assay: radioligand displacement, compound at 10 µM
[6] = target: beta 2 (h) (human), P07550; assay: radioligand displacement, compound at 10 µM
[7] = target: 5-HT transporter (h) (human), P31645; assay: radioligand displacement, compound at 10 µM

H1 (h) (human), P35367, sequence (P35367 whole entry): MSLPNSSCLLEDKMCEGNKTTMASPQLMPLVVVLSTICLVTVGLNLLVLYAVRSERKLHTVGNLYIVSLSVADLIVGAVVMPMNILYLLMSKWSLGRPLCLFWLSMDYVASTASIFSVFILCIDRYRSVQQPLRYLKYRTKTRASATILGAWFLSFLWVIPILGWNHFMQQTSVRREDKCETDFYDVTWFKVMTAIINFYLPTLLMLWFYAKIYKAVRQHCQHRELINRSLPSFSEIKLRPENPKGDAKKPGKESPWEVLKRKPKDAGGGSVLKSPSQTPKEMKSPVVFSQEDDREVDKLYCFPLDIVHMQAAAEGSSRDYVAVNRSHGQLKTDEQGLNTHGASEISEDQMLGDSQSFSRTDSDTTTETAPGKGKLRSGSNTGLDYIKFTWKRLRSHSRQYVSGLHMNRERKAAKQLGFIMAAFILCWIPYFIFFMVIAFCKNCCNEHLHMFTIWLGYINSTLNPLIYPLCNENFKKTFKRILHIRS

- % Inhibition of Specific Binding [2]: -3%
- % Inhibition of Specific Binding [3]: 0%
- % Inhibition of Specific Binding [4]: -2%
- % Inhibition of Specific Binding [5]: 11%
- % Inhibition of Specific Binding [6]: 4%
- % Inhibition of Specific Binding [7]: -3%
B1: Hex-[Cys(tMeBn(DOTA-PP))-Pro-Pro-Thr-Gln-Phe-Cys]-Asp-NH2 (3BP-3407) (peptide)
peptide: CPPTQFCD
modifications: here or on the partner: N-terminal hexanoyl (Hex); Cys1 and Cys7 cyclised through tMeBn carrying DOTA-PP; C-terminal amide
- % Inhibition of Specific Binding [1]: 2%

- % Inhibition of Specific Binding [2]: -5%
- % Inhibition of Specific Binding [3]: 1%
- % Inhibition of Specific Binding [4]: 0%
- % Inhibition of Specific Binding [5]: 4%
- % Inhibition of Specific Binding [6]: 8%
- % Inhibition of Specific Binding [7]: -8%
B2: Hex-[Cys(tMeBn(DOTA-AET))-Pro-Pro-Thr-Gln-Phe-Cys]-OH (3BP-3554) (peptide)
peptide: CPPTQFC
modifications: here or on the partner: N-terminal hexanoyl (Hex); Cys1 and Cys7 cyclised through tMeBn carrying DOTA-AET; free C-terminal acid (-OH)
- % Inhibition of Specific Binding [1]: 6%
